US20160369011A1 (EISAI R AND D MANAGEMENT, published 2016)
Numbering of substitutions follows the chain as printed. Blank lines part the entries; values can stand above or below the binder they belong to.

Experiments:
[1] = biological target: T1, human CA9 (carbonic anhydrase IX) (human, UniProt Q16790 38-414); assay: SPR, ligand CA9, flow cell Fc3
[2] = biological target: T2, human endosialin/TEM1 extracellular domain fused to mouse IgG2b Fc (human); assay: SPR, ligand TEM1-Fc, flow cell Fc3
T2 construct: also called TEM1-Fc
T2 chain: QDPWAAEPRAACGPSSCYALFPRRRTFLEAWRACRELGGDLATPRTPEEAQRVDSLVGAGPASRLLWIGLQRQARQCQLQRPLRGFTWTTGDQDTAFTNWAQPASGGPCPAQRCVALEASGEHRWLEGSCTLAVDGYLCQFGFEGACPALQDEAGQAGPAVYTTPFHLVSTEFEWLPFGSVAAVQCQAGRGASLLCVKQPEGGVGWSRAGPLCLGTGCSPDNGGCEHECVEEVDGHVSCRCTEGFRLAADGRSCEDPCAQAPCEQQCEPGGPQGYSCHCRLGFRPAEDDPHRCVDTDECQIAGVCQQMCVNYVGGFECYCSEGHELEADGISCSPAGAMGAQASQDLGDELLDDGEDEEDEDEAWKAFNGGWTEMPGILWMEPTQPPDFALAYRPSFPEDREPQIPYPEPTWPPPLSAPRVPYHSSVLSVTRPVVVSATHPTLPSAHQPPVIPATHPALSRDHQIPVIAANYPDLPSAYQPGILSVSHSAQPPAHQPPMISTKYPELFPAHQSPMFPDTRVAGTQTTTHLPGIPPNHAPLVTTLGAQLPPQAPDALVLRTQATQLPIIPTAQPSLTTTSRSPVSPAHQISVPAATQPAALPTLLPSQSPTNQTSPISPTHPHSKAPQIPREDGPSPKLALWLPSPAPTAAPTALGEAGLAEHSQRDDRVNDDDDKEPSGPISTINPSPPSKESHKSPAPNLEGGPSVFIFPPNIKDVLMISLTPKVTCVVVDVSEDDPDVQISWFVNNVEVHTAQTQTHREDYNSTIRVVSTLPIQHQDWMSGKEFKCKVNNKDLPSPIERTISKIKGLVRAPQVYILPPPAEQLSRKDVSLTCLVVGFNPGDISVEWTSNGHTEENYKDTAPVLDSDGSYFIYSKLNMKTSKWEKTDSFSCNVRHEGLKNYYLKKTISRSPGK

[3] = biological target: T1, human CA9 (carbonic anhydrase IX); assay: SPR, ligand CA9, flow cell Fc4
[4] = biological target: T2, human endosialin/TEM1 extracellular …; assay: SPR, ligand TEM1-Fc, flow cell Fc4
[5] = biological target: T1, human CA9 (carbonic anhydrase IX); assay: SPR (BIAcore), biotin-CA9 captured on CAP chip, antibody 0-50 nM as analyte
Experimental: To determine if chimerization, and therefore the loss of Cys80-Cys171 disulfide bond, results in structural perturbations leading to loss of antigen binding, the binding affinity of mAbs 155D5, xi155D5, 1-55-2, and xi1-55-2 by surface plasmon resonance was evaluated. Biotinylated ligand (biotin-hTEM1 for 1-55-2, biotin-CA9 for 155D5) was captured on a coated biotin CAP BIAcore chip (GE Healthcare, Piscataway, N.J.) using HBS-EP as running buffer. Final antigen capture levels were 130 RU and 280 RU, respectively, for biotin-TEM1 and biotin-CA9. Serial dilutions of antibody (120 μL of 0-50 nM) were passed over the ligand-coated chip. […] The chip surface was regenerated with 6 M GuHCl, 250 mM NaOH. Sensograms were double referenced and kinetic parameters were determined using BIAEvaluations software (ver. 4.1).

[6] = biological target: T1, human CA9 (carbonic anhydrase IX); assay: BIAcore T100, mAb captured on anti-human IgG, antigen as analyte, 1:1 model; mAb purified by the decapping method (Decapped)
Experimental: (§1) Antibody concentrations were adjusted to generate 30-40 RU signal when bound to the antigen. […] The sensor surface was washed by injecting HBS-P buffer for 1 min at a flow rate of 50 μL/min. To record the antigen association to the captured mAb, a series of increasing concentrations of antigen was injected for 60 sec at a flow rate of 50 μL/min. The dissociation of antigen was monitored for 30 min at the same flow rate. The sensor surface was regenerated by injecting 3 M MgCl₂ for 1 min and then 30 sec at a flow rate of 30 μL/min. Sensograms were analyzed with Biacore T100 Evaluation Software using a 1:1 Langmuir binding model.
(§2) xi155D5 and the humanized variants were purified by standard protein A chromatography or the decapping method, and their affinity was analyzed using BIAcore (Table 13).

[7] = biological target: T1, human CA9 (carbonic anhydrase IX); assay: BIAcore T100, mAb captured on anti-human IgG, antigen as analyte, 1:1 model; mAb purified by protein A (ProA)
Experimental: as §1, §2

[8] = biological target: T1, human CA9 (carbonic anhydrase IX); assay: BIAcore, summary of Table 13; reference xi155D5; told of the group of humanized variants
Experimental: as §1, §2

Kd [2]: 0.382 nM
koff [2]: 0.000329 s⁻¹
kon [2]: 862000 M⁻¹ s⁻¹
Kd [4]: 0.376 nM
koff [4]: 0.000326 s⁻¹
kon [4]: 865000 M⁻¹ s⁻¹
B3: xi1-55-2 Fab (Fab, V domains shown)
VH: QSVEESGGDLVKPEGSLTLTCTASGFSFSSSYWGCWVRQAPGKGPEWIACIYGGSSGTTYYPNWAKGRFSISKTSSTTVTLQMASLTAADTATYFCARVTNGGDWDFKLWGPGTLVTISS
VL: ELVMTQTPASVEVAVGGTVTIKCQASQSINTYLAWYQQKPGQPPKLLIYRASTLASGVPSRFKGSGSGTEFTLTISDLECADAATYYCQQSVRVIDVDNTFGGGTEVVVKR
notes: Made from xi1-55-2 by limited papain digestion and protein A removal of Fc; Fabs were fully decapped; not shown: human IgG1 CH1 and hinge up to the papain cleavage site

Kd [5]: 0.041 nM
koff [5]: 2.1e-05 s⁻¹
kon [5]: 510000 M⁻¹ s⁻¹
B4: 155D5 (rabbit anti-CA9 mAb) (antibody, V domains shown)
VH: QSVKESGGRLVTPGTPLTLTCTVSGFSLNSYAMIWVRQAPGEGLEYIGFITTGGTTYYASWAKGRFTISRTSTTVDLKLTRPTTEDTATYFCARDRVKSYDDYGDLDAFEPWGPGTLVTISS
VL: ELVMTQTPSSVSAAVGGTVTINCQASQSISSYLAWYQQKPGQPPKLLIYYASTLASGVPSRFKGSGSGTEFTLTITGVQCDDAATYYCLGVYGYSFDDGIAFGGGTELEIK
notes: Parental rabbit IgG with rabbit constant regions (Cys80-Cys171 disulfide); also called rabbit 155D5 MAb

Kd [6]: 0.589 nM
koff [6]: 0.00027 s⁻¹
kon [6]: 458000 M⁻¹ s⁻¹
Kd [7]: 0.569 nM
koff [7]: 0.000376 s⁻¹
kon [7]: 663000 M⁻¹ s⁻¹
fold difference in KD against chimeric xi155D5 [8]: < 2 fold
B6: zu155D5-2 (antibody, human IgG1, kappa, V domains shown)
VH: QVQLVESGGGLVQPGGSLRLSCSASGFSLNSYAMIWVRQAPGKGLEYIGFITTGGTTYYADSVKGRFTISRDNSKNTLYLQMNSLRAEDTAVYYCARDRVKSYDDYGDLDAFEPWGQGTLVTVSS
VL: DIQMTQSPSTLSASVGDRVTITCQASQSISSYLAWYQQKPGKAPKLLIYYASTLASGVPSRFSGSGSGTEFTLTITGVQCDDFATYYCLGVYGYSFDDGIAFGGGTKVEIKR
notes: Humanized 155D5, human IgG1 kappa; Tested both protein A purified and decapped

Kd [6]: 0.5 nM
koff [6]: 0.000355 s⁻¹
kon [6]: 770000 M⁻¹ s⁻¹
Kd [7]: 0.498 nM
koff [7]: 0.000495 s⁻¹
kon [7]: 1.01e+06 M⁻¹ s⁻¹
fold difference in KD against chimeric xi155D5 [8]: < 2 fold
B7: zu155D5-1 (antibody, human IgG1, kappa, V domains shown)
VH: B6 VH
VL: B6 VL with T76S, G77S, V78L
notes: Humanized 155D5, human IgG1 kappa; Tested both protein A purified (Cys80 capped) and decapped; also called zu155D5-CXXF; zu155D5-1 (huVK1-5)

Kd [6]: 0.568 nM
koff [6]: 0.000319 s⁻¹
kon [6]: 558000 M⁻¹ s⁻¹
Kd [7]: 0.533 nM
koff [7]: 0.000477 s⁻¹
kon [7]: 898000 M⁻¹ s⁻¹
fold difference in KD against chimeric xi155D5 [8]: < 2 fold
B10: zu155D5-6 (antibody, human IgG1, kappa)
heavy: not shown
light: DIQMTQSPSTVSAAVGGTVTITCQASQSISSYLAWYQQKPGKAPKLLIYYASTLASGVPSRFSGSGSGTEFTLTITGVQCDDAATYYCLGVYGYSFDDGIAFGGGTKVEIKRTVAAPSVFIFPPSDEQLKSGTASVVCLLNNFYPREAKVQWKVDNALQSGNSQESVTEQDSKDSTYSLSSTLTLSKADYEKHKVYACEVTHQGLSSPVTKSFNRGEC
notes: as for B6

Kd [6]: 0.68 nM
koff [6]: 0.000319 s⁻¹
kon [6]: 485000 M⁻¹ s⁻¹
Kd [7]: 0.534 nM
koff [7]: 0.000458 s⁻¹
kon [7]: 869000 M⁻¹ s⁻¹
fold difference in KD against chimeric xi155D5 [8]: < 2 fold
B11: zu155D5-7 (antibody, human IgG1, kappa)
heavy: not shown
light: B10 light with V11L, A14S, G17D, T18R, K107E, V108L
notes: as for B6

Further lines, the binder ahead of its results:

B1: xi155D5/xi1-55-2 bivalent/bispecific antigen-binding molecule (bispecific antibody)
heavy 1: B4 VH
light 1: ELVMTQTPSSVSAAVGGTVTINCQASQSISSYLAWYQQKPGQPPKLLIYYASTLASGVPSRFKGSGSGTEFTLTITGVQCDDAATYYCLGVYGYSFDDGIAFGGGTELEIKRTVAAPSVFIFPPSDEQLKSGTASVVCLLNNFYPREAKVQWKVDNALQSGNSQESVTEQDSKDSTYSLSSTLTLSKADYEKHKVYACEVTHQGLSSPVTKSFNRGEC
heavy 2: B3 VH
light 2: ELVMTQTPASVEVAVGGTVTIKCQASQSINTYLAWYQQKPGQPPKLLIYRASTLASGVPSRFKGSGSGTEFTLTISDLECADAATYYCQQSVRVIDVDNTFGGGTEVVVKRTVAAPSVFIFPPSDEQLKSGTASVVCLLNNFYPREAKVQWKVDNALQSGNSQESVTEQDSKDSTYSLSSTLTLSKADYEKHKVYACEVTHQGLSSPVTKSFNRGEC
modifications: maleimido-PEG4-azide on Cys80, joined by copper-free click chemistry to the DBCO on Cys80 of the xi155D5 light chain; maleimido-PEG4-dibenzylcyclooctyne (DBCO) on Cys80, joined by copper-free click chemistry to the azide on Cys80 of the xi1-55-2 light chain
notes: Two papain Fabs linked chemically through their light chain Cys80 residues; mass 95,939 Da by mass spectrometry; also called biFab; bivalent/bispecific Fab-Fab; not shown: human IgG1 CH1 and hinge up to the papain cleavage site
Kd [1]: 0.121 nM
koff [1]: 3.91e-05 s⁻¹
kon [1]: 322000 M⁻¹ s⁻¹
Kd [2]: 0.31 nM
koff [2]: 0.000257 s⁻¹
kon [2]: 829000 M⁻¹ s⁻¹
Kd [3]: 0.15 nM
koff [3]: 4.4e-05 s⁻¹
kon [3]: 294000 M⁻¹ s⁻¹
Kd [4]: 0.185 nM
koff [4]: 0.000189 s⁻¹
kon [4]: 1.02e+06 M⁻¹ s⁻¹

B2: xi155D5 Fab (Fab, V domains shown)
VH: B4 VH
VL: ELVMTQTPSSVSAAVGGTVTINCQASQSISSYLAWYQQKPGQPPKLLIYYASTLASGVPSRFKGSGSGTEFTLTITGVQCDDAATYYCLGVYGYSFDDGIAFGGGTELEIKR
notes: Made from xi155D5 by limited papain digestion and protein A removal of Fc; Fabs were fully decapped; not shown: human IgG1 CH1 and hinge up to the papain cleavage site
Kd [1]: 0.0383 nM
koff [1]: 2.19e-05 s⁻¹
kon [1]: 572000 M⁻¹ s⁻¹
Kd [3]: 0.0499 nM
koff [3]: 2.59e-05 s⁻¹
kon [3]: 519000 M⁻¹ s⁻¹

B5: zu155D5-4 (antibody, human IgG1, kappa)
heavy: not shown
light: B10 light with V11L, A14S, G17D, T18R
notes: as for B6
Kd [6]: 0.59 nM
koff [6]: 0.000378 s⁻¹
kon [6]: 641000 M⁻¹ s⁻¹
Kd [7]: 0.664 nM
koff [7]: 0.000382 s⁻¹
kon [7]: 577000 M⁻¹ s⁻¹
fold difference in KD against chimeric xi155D5 [8]: < 2 fold

B8: zu155D5-3 (antibody, human IgG1, kappa, V domains shown)
VH: B6 VH
VL: B6 VL with T76S, G77S, V78L, F83A
notes: Humanized 155D5, human IgG1 kappa; Tested both protein A purified and decapped; also called zu155D5-CXXA
Kd [6]: 0.507 nM
koff [6]: 0.000351 s⁻¹
kon [6]: 726000 M⁻¹ s⁻¹
Kd [7]: 0.562 nM
koff [7]: 0.000401 s⁻¹
kon [7]: 727000 M⁻¹ s⁻¹
fold difference in KD against chimeric xi155D5 [8]: < 2 fold

B9: zu155D5-5 (antibody, human IgG1, kappa, V domains shown)
VH: B6 VH
VL: B6 VL with S63K, F83A
notes: as for B6
Kd [6]: 0.478 nM
koff [6]: 0.000273 s⁻¹
kon [6]: 572000 M⁻¹ s⁻¹
Kd [7]: 0.639 nM
koff [7]: 0.000373 s⁻¹
kon [7]: 587000 M⁻¹ s⁻¹
fold difference in KD against chimeric xi155D5 [8]: < 2 fold
